B1: IgG1 m336 (antibody, V domains shown)
VH: QVQLVQSGAEVKKPGSSVKVSCKASGGTFSSYAISWVRQAPGQGLEWMGGIIPIFGTASYAQKFQGRVTITADKSTSTAYMELSSLRSEDTAVYYCARVGYCSSTSCNRGAFDIWGQGTMVTVSS
VL: DIQLTQSPSSLSASVGDRVTITCRASQGIRNDLGWYQQKPGKAPKLLIYAASSLQSGVPSRFSGSGSGTDFTLTISSLQPEDFATYYCQQLNSYPLTFGGGTKVEIKR
B2: IgG1 m337 (antibody, V domains shown)
VH: QVQLQQSGAEVKKPGSSVKVSCKASGGTFSSYTISWVRQAPGQGLEWMGRIIPIFGTANYAQKFQGRVTITADKSTSTAYMELSSLRSEDTAVYYCARDLGPGGDSSGYYYGPGAFDIWGQGTMVTVSS
VL: not shown
B3: IgG1 m338 (antibody, V domains shown)
VH: QVQLQQSGAEVKKRGSSVKVSCKASGGTFSSYTISWVRQAPGQGLEWMGRIIPILGIANYAQKFQGRVTITADKSTSTAYMELSSLRSEDTAVYYCARDLYDSSGYYRNTDAFDIWGQGTMVTVSS
VL: EIVMTQSPVTLSLSPGERATLSCRASQSVSSYLAWYQQKPGQAPRLLIYDASNRATGIPARFSGSGSGTDFTLTISSLEPEDFAVYYCQQYGSSPWTFGQGTKVEIKR

Biological target: T1, MERS-CoV spike glycoprotein (S) (MERS-CoV, UniProt K9N5Q8 18-1353)
T1 sequence: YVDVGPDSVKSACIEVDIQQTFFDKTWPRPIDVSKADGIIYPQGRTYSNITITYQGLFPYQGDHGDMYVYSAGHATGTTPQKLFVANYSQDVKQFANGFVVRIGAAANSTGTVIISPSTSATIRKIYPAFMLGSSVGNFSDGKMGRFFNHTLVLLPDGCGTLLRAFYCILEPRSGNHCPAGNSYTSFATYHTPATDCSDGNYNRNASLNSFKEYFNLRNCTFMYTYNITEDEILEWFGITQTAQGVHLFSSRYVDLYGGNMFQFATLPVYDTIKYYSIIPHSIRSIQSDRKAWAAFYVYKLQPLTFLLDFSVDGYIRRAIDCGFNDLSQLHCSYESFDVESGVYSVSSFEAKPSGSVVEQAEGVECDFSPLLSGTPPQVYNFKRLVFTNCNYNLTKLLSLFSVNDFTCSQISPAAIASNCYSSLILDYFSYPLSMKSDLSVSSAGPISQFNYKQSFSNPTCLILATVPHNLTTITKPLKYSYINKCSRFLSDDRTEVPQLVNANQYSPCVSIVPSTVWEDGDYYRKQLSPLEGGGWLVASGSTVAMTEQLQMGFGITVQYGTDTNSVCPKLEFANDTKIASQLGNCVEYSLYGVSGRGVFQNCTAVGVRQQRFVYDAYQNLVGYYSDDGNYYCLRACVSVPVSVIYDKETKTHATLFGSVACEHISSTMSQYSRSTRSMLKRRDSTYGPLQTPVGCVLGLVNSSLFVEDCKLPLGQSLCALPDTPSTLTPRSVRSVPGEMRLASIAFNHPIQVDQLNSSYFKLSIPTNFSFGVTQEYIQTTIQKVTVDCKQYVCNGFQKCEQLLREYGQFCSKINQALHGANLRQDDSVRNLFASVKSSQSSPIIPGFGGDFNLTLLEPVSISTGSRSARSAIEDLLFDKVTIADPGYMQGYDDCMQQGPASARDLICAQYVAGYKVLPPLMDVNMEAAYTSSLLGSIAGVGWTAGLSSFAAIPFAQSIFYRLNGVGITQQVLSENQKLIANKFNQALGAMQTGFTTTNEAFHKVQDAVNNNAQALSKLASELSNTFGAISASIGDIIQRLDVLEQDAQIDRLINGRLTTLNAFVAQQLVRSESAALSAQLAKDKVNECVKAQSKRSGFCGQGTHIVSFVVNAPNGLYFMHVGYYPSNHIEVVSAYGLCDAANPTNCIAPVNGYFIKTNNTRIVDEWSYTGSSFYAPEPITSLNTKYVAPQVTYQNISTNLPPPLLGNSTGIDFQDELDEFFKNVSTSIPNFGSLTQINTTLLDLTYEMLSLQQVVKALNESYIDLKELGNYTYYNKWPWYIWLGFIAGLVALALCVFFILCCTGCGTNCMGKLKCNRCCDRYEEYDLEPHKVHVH
Experiment: cell-based or functional assay

Binder	MERS-CoV pseudovirus neutralization (inhibition of viral entry) at 0.1 µg/ml [%]
B1	> 95
B2	> 95
B3	> 95

— US20160264647A1 (US Dept. of Health and Human Services, published 2016)
